Holding throughout (test): cryo-EM structure; OMCC of TraB-strep, TraK and TraV co-expressed in E. coli, purified from membranes in 50 mM Tris-HCl pH 7.5, 300 mM NaCl, 0.23% w/v LDAO; 0.1 mg/ml on Lacey grids with ultrathin carbon; single-particle maps with C17 (inner ring, 3.3 Å), C13 (outer ring, 3.4 Å) and C1 (5.7 Å) symmetry
Data set [1] addresses TraB (pED208 F-T4SS outer-membrane core complex protein, VirB10 homologue), strep-tagged (E. coli (plasmid pED208)).
Data set [2] concerns the target TraV (pED208 F-T4SS outer-membrane core complex lipoprotein, VirB7 homologue) (E. coli (plasmid pED208)) (UniProt P41069).
Data set [3] concerns the molecule itself.

In general, stoichiometry N refers to a count of units in the complex or per binding partner. For “TraV (pED208 F-T4SS outer-membrane core complex lipoprotein, VirB7 homologue) (from UniProt P41069 19-171) (natural protein)”, the stoichiometry N (TraV per TraB) in data set [1] was determined as 1.53. Moreover, in data set [2], the stoichiometry N turned out to be 26 chains.
As for “TraB (pED208 F-T4SS outer-membrane core complex protein, VirB10 homologue), strep-tagged (natural protein)”, the stoichiometry N in data set [1] is 17 chains.
For the molecule “TraK (pED208 F-T4SS outer-membrane core complex protein, VirB9 homologue) (natural protein)”, the stoichiometry N (TraK per TraB) in data set [1] is 1.53.

B1: TraK (pED208 F-T4SS outer-membrane core complex protein, VirB9 homologue) (natural protein)
chain: AQSPATISLPQGGQFRLSISNTDPNMIFIPGDKVTAITAPGGMLADKRLTTAGGVLFTSVATRTFTIFVETALGQTFSVVATPVKGEGRVYRLMSAEPPSRPETRKWETAQAYEKLLISLNRAVLTGDIPDGYGEVKPLSDGIRLPGGFSVTPLKAWAGDQLRADRYELRNANTWGVALREQDFWKPGVRAVMFDNNAQTLMGGGRMTVTVIRGNG
notes: TraK1 and TraK2 are two conformations of the same chain; 26 copies in the whole OMCC; also called TraK (VirB9); TraK1
Consider B1, for which, in data set [3], the “stoichiometry N” value came out at 26 chains.
